Patent publication US10201586B2 (dated 2019)
Where two headings read alike, the source gives them in different places. Where a SMILES comes first, the peptide text is derived from it. Bridges are numbered along the chain shown (N, C = ends). [ ]: non-standard residue; d: D form. NMeF = CN[C@@H](Cc1ccccc1)C(=O)O; β3hD = NC(CC(=O)O)CC(=O)O; Aib = CC(C)(N)C(=O)O; Sar = CNCC(=O)O

Experiments:
[1] = molecular target: T1, TFPI (Homo sapiens, UniProt P10646); experiment: % Inhibition @ 2.5µM; details: read-out: % Inhibition @ […]
Target sequence in this assay (P10646 29-304 limits assumed): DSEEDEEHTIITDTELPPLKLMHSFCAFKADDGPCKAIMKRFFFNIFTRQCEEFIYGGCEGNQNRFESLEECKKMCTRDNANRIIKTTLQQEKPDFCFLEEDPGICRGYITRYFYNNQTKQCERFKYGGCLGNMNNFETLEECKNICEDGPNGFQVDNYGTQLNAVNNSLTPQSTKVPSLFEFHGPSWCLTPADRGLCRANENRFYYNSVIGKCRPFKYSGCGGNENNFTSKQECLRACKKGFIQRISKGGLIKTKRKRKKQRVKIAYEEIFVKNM

[2] = molecular target: T1, TFPI; experiment: Extrinsic Tenase Inhibition assay | EC50 (µM)
Target sequence in this assay (P10646 29-304 limits assumed): as above

[3] = molecular target: T1, TFPI; experiment: Extrinsic Tenase Inhibition assay | EC50 (µM); remark: listed apart in the source
Target sequence in this assay (P10646 29-304 limits assumed): as above

[4] = molecular target: T1, TFPI; experiment: Extrinsic Tenase Inhibition assay | % Inhibition @ 2.5µM
[5] = molecular target: T1, TFPI; experiment: as above; remark: listed apart in the source
[6] = molecular target: T1, TFPI; experiment: % Inhibition @ 2.5µM
[7] = molecular target: T1, TFPI; experiment: Extrinsic Tenase Inhibition assay | % Inhibition @ 2.5µM; remark: listed apart in the source
[8] = molecular target: T1, TFPI; experiment: % Inhibition @ 2.5µM; remark: listed apart in the source
[9] = molecular target: T1, TFPI; experiment: % Inhibition @ 2.5µM; remark: listed apart in the source
[10] = molecular target: T1, TFPI; experiment: Extrinsic Tenase Inhibition by TFPI | % Inhibit (2.5µM)
[11] = molecular target: T1, TFPI; experiment: Progress Curves of Inhibition of FXa | % Inhibit (2.5µM)
[12] = molecular target: T1, TFPI; experiment: % Inhibition @ 2.5µM; details: read-out: % Inhibition @ […]; remark: listed apart in the source
Target sequence in this assay (P10646 29-304 limits assumed): as above

[13] = molecular target: T2, human TFPI-1 (Homo sapiens, UniProt P10646); experiment: BIAcore surface plasmon resonance assay; assay type: binding
T2 construct: human TFPI-1 (residues 29-282 fused at the C-terminus to a 10 His-tag); purchased R&D Systems 2974-PI

[14] = molecular target: T1, TFPI; experiment: IC50 Mean (nM]
Target sequence in this assay (P10646 29-304 limits assumed): as above

[15] = molecular target: T1, TFPI; experiment: % Inhibition @ 2.5µM; remark: listed apart in the source
[16] = molecular target: T1, TFPI; experiment: Extrinsic Tenase Inhibition assay | % Inhibition @ 2.5μM
[17] = molecular target: T1, TFPI; experiment: Extrinsic Tenase Inhibition assay | % Inhibition @ 2.5µM; details: read-out: Extrinsic Tenase Inhibition assay | % Inhibition @ […]
Target sequence in this assay (P10646 29-304 limits assumed): as above

[18] = molecular target: T1, TFPI; experiment: FXa Inhibition assay | EC50 (µM)
[19] = molecular target: T1, TFPI; experiment: Extrinsic Tenase Inhibition assay | % Inhibition @ 2.5µM; remark: listed apart in the source
[20] = molecular target: T1, TFPI; experiment: % Inhibition @ 2.5µM; details: read-out: % Inhibition @ […]; remark: listed apart in the source
[21] = molecular target: T1, TFPI; experiment: Extrinsic Tenase Inhibition assay | % Inhibition @ 2.5µM; details: read-out: Extrinsic Tenase Inhibition assay | % Inhibition @ […]; remark: listed apart in the source

T2 sequence (P10646 29-282): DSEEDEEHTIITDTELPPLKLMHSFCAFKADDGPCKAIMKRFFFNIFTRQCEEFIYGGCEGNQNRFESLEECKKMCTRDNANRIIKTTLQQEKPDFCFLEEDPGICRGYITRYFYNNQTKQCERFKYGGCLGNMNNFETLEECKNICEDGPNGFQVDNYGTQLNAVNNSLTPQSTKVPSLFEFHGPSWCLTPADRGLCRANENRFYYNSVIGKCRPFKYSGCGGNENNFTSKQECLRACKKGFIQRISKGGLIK

CC(=O)N[C@@H](Cc1ccccc1)C(=O)N[C@@H](CCC(N)=O)C(=O)N[C@@H](CO)C(=O)N[C@@H](CCCCN)C(=O)N(C)CC(=O)N[C@@H](CC(N)=O)C(=O)N[C@H](C(=O)N[C@@H](Cc1ccccc1)C(=O)N[C@H](C(=O)N[C@@H](Cc1ccccc1)C(=O)NCC(=O)N[C@@H](Cc1ccc(O)cc1)C(=O)N[C@@H](Cc1ccccc1)C(=O)N[C@@H](C)C(=O)N[C@@H](CCCNC(=N)N)C(=O)N[C@@H](CC(C)C)C(=O)N[C@@H](CCCNC(=N)N)C(=O)N[C@@H](C)C(=O)N[C@@H](CCCCN)C(=O)N[C@@H](CC(C)C)C(N)=O)C(C)C)C(C)C [JBT0780] (Ac-FQSK[Sar]NVFVFGYFARLRAKL-NH2)
inhibition at […] [1]: 45%
EC50 [2]: 1920 nM

CC(=O)N(C)[C@@H](Cc1ccccc1)C(=O)N[C@@H](CCC(N)=O)C(=O)N[C@@H](CO)C(=O)N[C@@H](CCCCN)C(=O)NCC(=O)N[C@@H](CC(N)=O)C(=O)N[C@H](C(=O)N[C@@H](Cc1ccccc1)C(=O)N[C@H](C(=O)N[C@@H](Cc1ccccc1)C(=O)NCC(=O)N[C@@H](Cc1ccc(O)cc1)C(=O)N[C@@H](Cc1ccccc1)C(=O)N[C@@H](CCC(=O)O)C(=O)N[C@@H](CCCNC(=N)N)C(=O)N[C@@H](CC(C)C)C(=O)N[C@@H](CCCNC(=N)N)C(=O)N[C@@H](C)C(=O)N[C@@H](CCCCN)C(=O)N[C@@H](CC(C)C)C(N)=O)C(C)C)C(C)C [JBT0497] (Ac-[NMeF]QSKGNVFVFGYFERLRAKL-NH2)
EC50 [3]: 1130 nM

Ac-FQSK-Nmg-NVFVTGYFERL-Aib-AKL-NH2 (SEQ ID NO: 165) (Ac-FQSK[Sar]NVFVTGYFERL[Aib]AKL-NH2; SMILES CC(=O)N[C@@H](Cc1ccccc1)C(=O)N[C@@H](CCC(N)=O)C(=O)N[C@@H](CO)C(=O)N[C@@H](CCCCN)C(=O)N(C)CC(=O)N[C@@H](CC(N)=O)C(=O)N[C@H](C(=O)N[C@@H](Cc1ccccc1)C(=O)N[C@H](C(=O)N[C@H](C(=O)NCC(=O)N[C@@H](Cc1ccc(O)cc1)C(=O)N[C@@H](Cc1ccccc1)C(=O)N[C@@H](CCC(=O)O)C(=O)N[C@@H](CCCNC(=N)N)C(=O)N[C@@H](CC(C)C)C(=O)NC(C)(C)C(=O)N[C@@H](C)C(=O)N[C@@H](CCCCN)C(=O)N[C@@H](CC(C)C)C(N)=O)[C@@H](C)O)C(C)C)C(C)C) [JBT1585]
Extrinsic Tenase Inhibition assay | % Inhibition @ […] [4]: 48%

Ac-FQSKGNVFVFGYF-bE-RLRAKL-NH2 (SEQ ID NO: 272) (Ac-FQSKGNVFVFGYF[β3hD]RLRAKL-NH2; SMILES CC(=O)N[C@@H](Cc1ccccc1)C(=O)N[C@@H](CCC(N)=O)C(=O)N[C@@H](CO)C(=O)N[C@@H](CCCCN)C(=O)NCC(=O)N[C@@H](CC(N)=O)C(=O)N[C@H](C(=O)N[C@@H](Cc1ccccc1)C(=O)N[C@H](C(=O)N[C@@H](Cc1ccccc1)C(=O)NCC(=O)N[C@@H](Cc1ccc(O)cc1)C(=O)N[C@@H](Cc1ccccc1)C(=O)N[C@@H](CC(=O)O)CC(=O)N[C@@H](CCCNC(=N)N)C(=O)N[C@@H](CC(C)C)C(=O)N[C@@H](CCCNC(=N)N)C(=O)N[C@@H](C)C(=O)N[C@@H](CCCCN)C(=O)N[C@@H](CC(C)C)C(N)=O)C(C)C)C(C)C) [JBT0528]
Extrinsic Tenase Inhibition assay | % Inhibition @ […] [5]: 8%
% Inhibition @ […] [6]: 25%

Ac-SRYKWF[CGMADMKGTMSC]VWVKF-NH2 (SEQ ID NO: 1079) (Ac-SRYKWFCGMADMKGTMSCVWVKF-NH2; disulfide 7-18; SMILES CSCC[C@@H]1NC(=O)CNC(=O)[C@@H](NC(=O)[C@H](Cc2ccccc2)NC(=O)[C@H](Cc2c[nH]c3ccccc23)NC(=O)[C@H](CCCCN)NC(=O)[C@H](Cc2ccc(O)cc2)NC(=O)[C@H](CCCNC(=N)N)NC(=O)[C@H](CO)NC(C)=O)CSSC[C@@H](C(=O)N[C@H](C(=O)N[C@@H](Cc2c[nH]c3ccccc23)C(=O)N[C@H](C(=O)N[C@@H](CCCCN)C(=O)N[C@@H](Cc2ccccc2)C(N)=O)C(C)C)C(C)C)NC(=O)[C@H](CO)NC(=O)[C@H](CCSC)NC(=O)[C@H]([C@@H](C)O)NC(=O)CNC(=O)[C@H](CCCCN)NC(=O)[C@H](CCSC)NC(=O)[C@H](CC(=O)O)NC(=O)[C@H](C)NC1=O) [JBT0446]
Extrinsic Tenase Inhibition assay | % Inhibition @ […] [7]: 46%
% Inhibition @ […] [8]: 50%

Ac-SRYKWFSGMRDMKGTMSSVWVKF-NH2 (SEQ ID NO: 1229) [JBT0417]
% Inhibition @ […] [9]: 0%
Extrinsic Tenase Inhibition by TFPI | % Inhibit ([…]) [10]: 11%
Progress Curves of Inhibition of FXa | % Inhibit ([…]) [11]: 2%

CC(=O)N[C@@H](Cc1ccccc1)C(=O)N[C@@H](CCC(N)=O)C(=O)N[C@@H](CO)C(=O)N[C@@H](CCCCN)C(=O)N[C@@H](CC(N)=O)C(=O)N[C@@H](CC(N)=O)C(=O)N[C@H](C(=O)N[C@@H](Cc1ccccc1)C(=O)N[C@H](C(=O)N[C@@H](Cc1ccccc1)C(=O)NCC(=O)N[C@@H](Cc1ccc(O)cc1)C(=O)N[C@@H](Cc1ccccc1)C(=O)N[C@@H](CCC(=O)O)C(=O)N[C@@H](CCCNC(=N)N)C(=O)N[C@@H](CC(C)C)C(=O)N[C@@H](CCCNC(=N)N)C(=O)N[C@@H](C)C(=O)N[C@@H](CCCCN)C(=O)N[C@@H](CC(C)C)C(N)=O)C(C)C)C(C)C [JBT0297] (Ac-FQSKNNVFVFGYFERLRAKL-NH2)
inhibition at […] [12]: 59%
koff [13]: 0.014 s⁻¹
kon [13]: 500000 M⁻¹ s⁻¹
IC50 [14]: 63 nM

Ac-SRYKWFGMR[CDMKGC]TMSVWVKF-NH2 (SEQ ID NO: 1162) (Ac-SRYKWFGMRCDMKGCTMSVWVKF-NH2; disulfide 10-15; SMILES CSCC[C@H](NC(=O)CNC(=O)[C@H](Cc1ccccc1)NC(=O)[C@H](Cc1c[nH]c2ccccc12)NC(=O)[C@H](CCCCN)NC(=O)[C@H](Cc1ccc(O)cc1)NC(=O)[C@H](CCCNC(=N)N)NC(=O)[C@H](CO)NC(C)=O)C(=O)N[C@@H](CCCNC(=N)N)C(=O)N[C@H]1CSSC[C@@H](C(=O)N[C@H](C(=O)N[C@@H](CCSC)C(=O)N[C@@H](CO)C(=O)N[C@H](C(=O)N[C@@H](Cc2c[nH]c3ccccc23)C(=O)N[C@H](C(=O)N[C@@H](CCCCN)C(=O)N[C@@H](Cc2ccccc2)C(N)=O)C(C)C)C(C)C)[C@@H](C)O)NC(=O)CNC(=O)[C@H](CCCCN)NC(=O)[C@H](CCSC)NC(=O)[C@H](CC(=O)O)NC1=O) [JBT0470]
% Inhibition @ […] [15]: 0%
Extrinsic Tenase Inhibition assay | % Inhibition @ […] [16]: 2%

CC(=O)N[C@@H](Cc1ccccc1)C(=O)N[C@@H](CCC(N)=O)C(=O)N[C@@H](CO)C(=O)N[C@@H](CCCCN)C(=O)N(C)CC(=O)N[C@@H](CC(N)=O)C(=O)N[C@H](C(=O)N[C@@H](Cc1ccccc1)C(=O)N[C@H](C(=O)N[C@H](C(=O)NCC(=O)N[C@@H](Cc1ccc(O)cc1)C(=O)N[C@@H](Cc1ccccc1)C(=O)N[C@@H](CCC(=O)O)C(=O)N[C@@H](CCCNC(=N)N)C(=O)N[C@@H](CC(C)C)C(=O)N[C@@H](CCCNC(=N)N)C(=O)N[C@@H](C)C(=O)N[C@@H](CCCCN)C(=O)N[C@@H](CC(C)C)C(N)=O)[C@@H](C)O)C(C)C)C(C)C [JBT1155] (Ac-FQSK[Sar]NVFVTGYFERLRAKL-NH2)
inhibition at […] [17]: 32%
EC50 [18]: 210 nM

Ac-FQSKGNVFVFGYFERLR-bAla-KL-NH2 (SEQ ID NO: 423) [JBT0532]
% Inhibition @ […] [6]: 14%
Extrinsic Tenase Inhibition assay | % Inhibition @ […] [19]: 0%

CSCC[C@@H]1NC(=O)CNC(=O)[C@@H](NC(=O)[C@H](Cc2ccccc2)NC(=O)[C@H](Cc2c[nH]c3ccccc23)NC(=O)[C@H](CCCCN)NC(=O)[C@H](Cc2ccc(O)cc2)NC(=O)[C@H](CCCNC(=N)N)NC(=O)[C@H](CO)NC(=O)[C@H](CCCCN)NC(=O)[C@H](CCCCN)NC(C)=O)CSSC[C@@H](C(=O)N[C@H](C(=O)N[C@@H](Cc2c[nH]c3ccccc23)C(=O)N[C@@H](CCCCN)C(=O)N[C@@H](CCCCN)C(N)=O)C(C)C)NC(=O)[C@H](CO)NC(=O)[C@H](CCSC)NC(=O)[C@H]([C@@H](C)O)NC(=O)CNC(=O)[C@H](CCCCN)NC(=O)[C@H](CCSC)NC(=O)[C@H](CC(=O)O)NC(=O)[C@H](CCCNC(=N)N)NC1=O [JBT0250] (Ac-KKSRYKWFCGMRDMKGTMSCVWKK-NH2; disulfide 9-20)
inhibition at […] [20]: 11%
inhibition at […] [21]: 19%
